Measured values taken from US20240327530A1 (ICHNOS SCIENCES, published 2024).

T1: Recombinant human IL-1RAP Fc fusion protein (Acrobiosystems, catalog no. ILP-H5256) (human, UniProt Q9NPH3 21-359, limits assumed)
T1 construct: Bought; not shown: Fc part of the bought fusion protein
T1 sequence: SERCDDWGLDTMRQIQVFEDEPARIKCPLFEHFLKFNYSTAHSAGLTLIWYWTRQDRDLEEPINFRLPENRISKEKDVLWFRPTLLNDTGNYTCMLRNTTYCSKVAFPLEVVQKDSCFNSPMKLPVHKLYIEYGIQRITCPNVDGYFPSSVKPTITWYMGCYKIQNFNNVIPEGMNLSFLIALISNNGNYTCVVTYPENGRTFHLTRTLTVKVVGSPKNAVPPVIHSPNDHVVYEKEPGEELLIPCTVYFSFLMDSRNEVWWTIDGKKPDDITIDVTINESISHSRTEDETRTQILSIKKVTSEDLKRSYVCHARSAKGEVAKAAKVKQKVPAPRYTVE

T2: Recombinant cynomolgus monkey IL-1RAP-ECD(S21-E359)-avi-his protein (cynomolgus monkey, UniProt P59822 21-359 (rhesus entry))
T2 construct: also called cyno IL-1RAP-ECD-Avi-His; recombinant cynomolgus monkey IL-1RAP-avi-his protein
T2 sequence: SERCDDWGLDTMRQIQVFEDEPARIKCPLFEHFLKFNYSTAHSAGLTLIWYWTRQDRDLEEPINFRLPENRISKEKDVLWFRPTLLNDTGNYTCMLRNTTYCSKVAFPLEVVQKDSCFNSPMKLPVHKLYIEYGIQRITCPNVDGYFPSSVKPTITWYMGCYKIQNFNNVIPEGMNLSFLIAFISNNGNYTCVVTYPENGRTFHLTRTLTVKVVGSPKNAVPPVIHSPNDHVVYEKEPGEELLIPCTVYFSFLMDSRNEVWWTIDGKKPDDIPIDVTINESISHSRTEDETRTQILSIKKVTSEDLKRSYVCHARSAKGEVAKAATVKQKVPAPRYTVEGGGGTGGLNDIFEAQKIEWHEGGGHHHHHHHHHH

T3: Recombinant mouse IL-1RAP Fc fusion protein (Sino Biologicals, catalog no. 52657-M02H) (mouse, UniProt Q61730 21-350)
T3 construct: Bought; not shown: Fc part of the bought fusion protein
T3 sequence: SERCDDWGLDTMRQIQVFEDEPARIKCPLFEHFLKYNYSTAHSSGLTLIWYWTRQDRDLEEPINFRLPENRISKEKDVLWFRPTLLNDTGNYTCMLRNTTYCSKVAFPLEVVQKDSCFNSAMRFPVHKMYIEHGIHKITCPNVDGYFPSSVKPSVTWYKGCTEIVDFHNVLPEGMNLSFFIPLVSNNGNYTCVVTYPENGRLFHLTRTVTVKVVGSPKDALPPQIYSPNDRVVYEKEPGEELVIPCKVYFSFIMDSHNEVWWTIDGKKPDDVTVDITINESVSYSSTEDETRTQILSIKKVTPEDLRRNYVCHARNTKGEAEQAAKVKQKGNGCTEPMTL


Columns and labels:
[1] = biological target: T1, Recombinant human IL-1RAP Fc fusion …; assay: SPR, human IL-1RAP-Fc captured, Fab as analyte (0.08 to 50 nM)
Procedure: BR100669) at a flow rate of 30 μl/min for 3 min on fc1 and fc2 (fc1 being used as reference). Dissociation was monitored for 5 min. After each cycle, the surface was regenerated with 60 μl of regeneration solution provided with anti-human IgG Fc capture kit (BIACORE™, GE […]®, catalog no. BR100839) or BiotinCAPture kit (BIACORE™, GE […]®, catalog no. 28920234) respectively. Experimental data were processed using the 1:1 Langmuir kinetic fitting model. Measurements included zero-concentration samples for referencing. Chi², U- and residual values were used to evaluate the quality of a fit between the experimental data and individual binding models. […]

[2] = biological target: T2, Recombinant cynomolgus monkey …; assay: SPR, biotinylated cyno IL-1RAP-avi-his captured, Fab as analyte, 1:1 fit
Procedure: (§1) Surface plasmon resonance (SPR) was used to measure the binding affinities of the Fab fragments for human, cynomolgus monkey and/or mouse IL-1RAP. Affinities were measured on a BIACORE™ T200 instrument (BIACORE™, GE […]®) at 25° C. and analyzed with the BIACORE™ T200 Evaluation Software (v3.1). Measurements were performed on Series S CM5 sensor chips (BIACORE™ T200, BIACORE™, GE […]®, catalog no. BR100530) coupled with anti-human IgG Fc (BIACORE™, GE […]®, catalog no. BR100839) using a commercial amine coupling kit (BIACORE™, GE […]®, catalog no. BR100050) or on Series S BiotinCAPture chips (BIACORE™, GE […]®, catalog no. 28920234). SPR measurements were performed with commercially available recombinant human IL-1RAP Fc fusion protein (Acrobiosystems, catalog no. ILP-H5256) and recombinant mouse IL-1RAP Fc fusion protein (Sino Biologicals, catalog no. 52657-M02H) or with biotinylated recombinant cynomolgus monkey IL-1RAP-avi-his protein produced in-house (SEQ ID NO. 2).
(§2) The affinities to human, cynomolgus monkey and mouse IL-1RAP were assessed by immobilizing IL-1RAP and using Fab fragments as analyte. Around 100 RU of human or mouse IL-1RAP Fc fusion protein were captured on fc2 of a Series S CM5 sensor chip coupled with anti-human IgG Fc and around 150 RU of biotinylated cynomolgus monkey IL-1RAP protein were captured on fc2 of a Series S BiotinCAPture chip. Fab fragments were injected in single cycle kinetic at different concentrations ranging from 7.8 to 500 nM, in HBS-EP+ buffer (BIACORE™, GE […]®, catalog no. BR100669) at a flow rate of 30 μl/min for 3 min on fc1 and fc2 (fc1 being used as reference). Dissociation was monitored for 5 min. After each cycle, the surface was regenerated with 60 μl of regeneration solution provided with anti-human IgG Fc capture kit (BIACORE™, GE […]®, catalog no. BR100839) or BiotinCAPture kit (BIACORE™, GE […]®, catalog no. 28920234) respectively. Experimental data were processed using the 1:1 Langmuir kinetic fitting model. Measurements included zero-concentration samples for referencing. Chi², U- and residual values were used to evaluate the quality of a fit between the experimental data and individual binding models.

[3] = biological target: T3, Recombinant mouse IL-1RAP Fc fusion …; assay: SPR, mouse IL-1RAP-Fc captured, Fab as analyte
Procedure: as §1, §2

[4] = biological target: T1, Recombinant human IL-1RAP Fc fusion …; assay: SPR, human IL-1RAP-Fc captured, Fab as analyte, 1:1 fit
Procedure: as §1, §2

Binder	Kd [1] [nM]	Kd [2] [nM]	binding result [3]	Kd [4] [nM]
Anti-IL-1RAP-C8-H1A-C4-Fab (Fab, V domains shown) VH: QVQLVQSGAEVKKPGSSVKVSCKASGGKLNAYAIQWVRQAPGQGLEWMGYIIPLHGQVDYAQKFQGRVTITADESTSTAYMELSSLRSEDTAVYYCARGQTLYDSGRQFDIWGQGTLVTVSS VL: not shown	0.995	–	–	–
Anti-IL-1RAP-C8-H1A-C8-Fab (Fab, V domains shown) VH: QVQLVQSGAEVKKPGSSVKVSCKASGGLFSDYAIQWVRQAPGQGLEWMGYIIPLHGQVDYAQKFQGRVTITADESTSTAYMELSSLRSEDTAVYYCARGQTLYDSGRQFDIWGQGTLVTVSS VL: not shown	1.24	–	–	–
Anti-IL-1RAP-C8-H1A-D8-Fab (Fab, V domains shown) VH: QVQLVQSGAEVKKPGSSVKVSCKASGGHFNNYAIQWVRQAPGQGLEWMGYIIPLHGQVDYAQKFQGRVTITADESTSTAYMELSSLRSEDTAVYYCARGQTLYDSGRQFDIWGQGTLVTVSS VL: not shown	1.51	–	–	–
Anti-IL-1RAP-C8-H1A-F1-Fab (Fab, V domains shown) VH: QVQLVQSGAEVKKPGSSVKVSCKASGGIFSNYAIQWVRQAPGQGLEWMGYIIPLHGQVDYAQKFQGRVTITADESTSTAYMELSSLRSEDTAVYYCARGQTLYDSGRQFDIWGQGTLVTVSS VL: not shown	0.832	–	–	–
Anti-IL-1RAP-C8-H1A-G1-Fab (Fab, V domains shown) VH: QVQLVQSGAEVKKPGSSVKVSCKASGGASRAYAIHWVRQAPGQGLEWMGYIIPLHGQVDYAQKFQGRVTITADESTSTAYMELSSLRSEDTAVYYCARGQTLYDSGRQFDIWGQGTLVTVSS VL: not shown	0.424	–	–	–
Anti-IL-1RAP-C8-H1A-G3-Fab (Fab, V domains shown) VH: QVQLVQSGAEVKKPGSSVKVSCKASGGPFSDYAIQWVRQAPGQGLEWMGYIIPLHGQVDYAQKFQGRVTITADESTSTAYMELSSLRSEDTAVYYCARGQTLYDSGRQFDIWGQGTLVTVSS VL: not shown	0.623	–	–	–
Anti-IL-1RAP-C8-H1A-G11-Fab (Fab, V domains shown) VH: QVQLVQSGAEVKKPGSSVKVSCKASGGRFHQYAIQWVRQAPGQGLEWMGYIIPLHGQVDYAQKFQGRVTITADESTSTAYMELSSLRSEDTAVYYCARGQTLYDSGRQFDIWGQGTLVTVSS VL: not shown	0.742	–	–	–
Anti-IL-1RAP-C8-H1B-A8-Fab (Fab, V domains shown) VH: QVQLVQSGAEVKKPGSSVKVSCKASGEGSYPYAIQWVRQAPGQGLEWMGYIIPLHGQVDYAQKFQGRVTITADESTSTAYMELSSLRSEDTAVYYCARGQTLYDSGRQFDIWGQGTLVTVSS VL: not shown	0.522	–	–	–
Anti-IL-1RAP-C8-H1B-B8-Fab (Fab, V domains shown, also called ISB 880-C8-H1B-B8) VH: QVQLVQSGAEVKKPGSSVKVSCKASGSPAEPYAIQWVRQAPGQGLEWMGYIIPLHGQVDYAQKFQGRVTITADESTSTAYMELSSLRSEDTAVYYCARGQTLYDSGRQFDIWGQGTLVTVSS VL: not shown	0.373	–	–	–
Anti-IL-1RAP-C8-H1B-B10-Fab (Fab, V domains shown) VH: QVQLVQSGAEVKKPGSSVKVSCKASGVTHTSYAIQWVRQAPGQGLEWMGYIIPLHGQVDYAQKFQGRVTITADESTSTAYMELSSLRSEDTAVYYCARGQTLYDSGRQFDIWGQGTLVTVSS VL: not shown	0.553	–	–	–
Anti-IL-1RAP-C8-H1B-D8-Fab (Fab, V domains shown) VH: QVQLVQSGAEVKKPGSSVKVSCKASGPSNPVYAIQWVRQAPGQGLEWMGYIIPLHGQVDYAQKFQGRVTITADESTSTAYMELSSLRSEDTAVYYCARGQTLYDSGRQFDIWGQGTLVTVSS VL: not shown	0.476	–	–	–
Anti-IL-1RAP-C8-H1B-E7-Fab (Fab, V domains shown) VH: QVQLVQSGAEVKKPGSSVKVSCKASGSKHGNYAIQWVRQAPGQGLEWMGYIIPLHGQVDYAQKFQGRVTITADESTSTAYMELSSLRSEDTAVYYCARGQTLYDSGRQFDIWGQGTLVTVSS VL: not shown	0.831	–	–	–
Anti-IL-1RAP-C8-H1B-F3-Fab (Fab, V domains shown) VH: QVQLVQSGAEVKKPGSSVKVSCKASGGPHTAHAIQWVRQAPGQGLEWMGYIIPLHGQVDYAQKFQGRVTITADESTSTAYMELSSLRSEDTAVYYCARGQTLYDSGRQFDIWGQGTLVTVSS VL: not shown	0.427	–	–	–
Anti-IL-1RAP-C8-H1B-G10-Fab (Fab, V domains shown) VH: QVQLVQSGAEVKKPGSSVKVSCKASGGPRRAYAIQWVRQAPGQGLEWMGYIIPLHGQVDYAQKFQGRVTITADESTSTAYMELSSLRSEDTAVYYCARGQTLYDSGRQFDIWGQGTLVTVSS VL: not shown	0.313	–	–	–
Anti-IL-1RAP-UCP03-C2-Fab (Fab, V domains shown) VH: QVQLVQSGAEVKKPGSSVKVSCKASGDPFKRYAIGWVRQAPGQGLEWMGGIIPTTGEAIYAQKFQGRVTITADESTSTAYMELSSLRSEDTAVYYCARHGTTYAAFDHWGQGTLVTVSS VL: not shown	–	486	no binding (tested: 7.8 to 500 nM Fab)	700
Anti-IL-1RAP-UCP03-G3-Fab (Fab, V domains shown) VH: QVQLVQSGAEVKKPGSSVKVSCKASGGPLSGYAFHWVRQAPGQGLEWMGGIIPNFAQTDYAQKFQGRVTITADESTSTAYMELSSLRSEDTAVYYCARFSIYSGWSDVWGQGTLVTVSS VL: not shown	–	464	no binding (tested: 7.8 to 500 nM Fab)	279
Anti-IL-1RAP-UCP03-G4-Fab (Fab, V domains shown) VH: QVQLVQSGAEVKKPGSSVKVSCKASGGRFSHYVFSWVRQAPGQGLEWMGGIIPYEGKPFYAQKFQGRVTITADESTSTAYMELSSLRSEDTAVYYCARSDYFYYYFDPWGQGTLVTVSS VL: not shown	–	378	no binding (tested: 7.8 to 500 nM Fab)	420
Anti-IL-1RAP-UCP02-B11-Fab (Fab, V domains shown) VH: QVQLVQSGAEVKKPGSSVKVSCKASGGHFSQFAISWVRQAPGQGLEWMGGIAPGLGSTRYAQKFQGRVTITADESTSTAYMELSSLRSEDTAVYYCARDSIYSAWLAYWGQGTLVTVSS VL: not shown	–	78.7	no binding (tested: 7.8 to 500 nM Fab)	98.1
